Results taken from patent publication US20220153872A1 (MAB LEGEND BIOTECH, published 2022).

Legend:
[1] = molecular target: T1, human Factor XIa, activated form of coagulation factor XI (human, UniProt P03951 19-387; P03951 388-625); assay: cell-based or functional assay
[2] = molecular target: T1, human Factor XIa, activated form of …; assay: ELISA
human FIXa = human FIXa (human, UniProt P00740 47-191; P00740 227-461); assay: ELISA, antibody dilution series
Procedure: (§1) In this example, the binding ability of coagulation factors PK, PKa, FXII, FXIIa, FIX, FIXa, FX, FXa, FVIIa, and Thrombin to antibodies at a series of diluted concentrations was analyzed using ELISA.

human FXII = molecular target: T2, human FXII (human, UniProt P00748 20-615); assay: ELISA, antibody dilution series
T2 sequence (looked up): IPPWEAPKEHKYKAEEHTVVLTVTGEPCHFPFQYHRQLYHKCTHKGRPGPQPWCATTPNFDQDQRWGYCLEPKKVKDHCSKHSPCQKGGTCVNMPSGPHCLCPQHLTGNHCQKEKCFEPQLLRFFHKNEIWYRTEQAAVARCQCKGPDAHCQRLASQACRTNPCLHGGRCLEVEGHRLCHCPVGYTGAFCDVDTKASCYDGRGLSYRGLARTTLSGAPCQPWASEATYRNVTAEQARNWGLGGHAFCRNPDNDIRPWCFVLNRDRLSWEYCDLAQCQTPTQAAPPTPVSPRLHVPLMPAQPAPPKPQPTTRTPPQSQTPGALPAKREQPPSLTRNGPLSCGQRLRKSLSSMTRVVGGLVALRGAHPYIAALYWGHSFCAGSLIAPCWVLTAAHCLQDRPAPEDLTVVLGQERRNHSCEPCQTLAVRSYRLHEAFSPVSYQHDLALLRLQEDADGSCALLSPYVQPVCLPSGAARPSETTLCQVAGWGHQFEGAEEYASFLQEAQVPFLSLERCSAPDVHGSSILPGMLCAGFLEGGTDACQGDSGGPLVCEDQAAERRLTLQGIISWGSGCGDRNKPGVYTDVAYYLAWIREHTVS
Procedure: as §1

human FXa = human FXa (human, UniProt P00742 41-179; P00742 235-488, limits assumed); assay: ELISA, antibody dilution series
Procedure: as §1

human FIX = human FIX (human, UniProt P00740 47-461); assay: ELISA, antibody dilution series
Procedure: as §1

human FX = human FX (human, UniProt P00742 41-488); assay: ELISA, antibody dilution series
Procedure: as §1

human PK = human PK (human, UniProt P03952 20-638); assay: ELISA, antibody dilution series
Procedure: as §1

human Thrombin = human Thrombin (human, UniProt P00734 328-363; P00734 364-622); assay: ELISA, antibody dilution series
Procedure: as §1

human FVIIa = molecular target: T3, human FVIIa (human, UniProt P08709 61-212; P08709 213-466); assay: ELISA, antibody dilution series
T3 sequence (looked up) 1: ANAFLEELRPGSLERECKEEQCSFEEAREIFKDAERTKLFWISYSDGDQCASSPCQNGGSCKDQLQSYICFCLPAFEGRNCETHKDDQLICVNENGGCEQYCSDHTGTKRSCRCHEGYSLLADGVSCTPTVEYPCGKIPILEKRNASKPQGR
T3 sequence (looked up) 2: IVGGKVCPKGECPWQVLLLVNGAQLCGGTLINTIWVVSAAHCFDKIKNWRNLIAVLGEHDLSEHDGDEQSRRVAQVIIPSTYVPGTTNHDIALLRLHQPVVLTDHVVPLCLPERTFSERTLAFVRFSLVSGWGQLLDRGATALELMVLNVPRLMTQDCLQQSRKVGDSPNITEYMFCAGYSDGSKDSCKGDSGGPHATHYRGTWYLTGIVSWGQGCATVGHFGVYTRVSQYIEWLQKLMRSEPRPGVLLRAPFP
Procedure: as §1

[3] = molecular target: T1, human Factor XIa, activated form of …; assay: SPR, BIAcore T200, antibody captured on Protein A chip, FXIa as analyte, 1:1 Langmuir fit
Procedure: (2) Sample testing conditions: The binding characteristics of FXIa and antibodies were preliminarily determined and evaluated in a manual mode. 10 nM was determined as the maximum analytical concentration of FXIa. […] During the sample analysis, the flow rate was set to be 30 μL/min, the binding time was 120 s, and the dissociation time was 600 s.
(3) Regeneration conditions: With reference to other experiments, preliminary determination and evaluation were performed in a manual mode. […] During the regeneration, the flow rate was set to be 30 μL/min, and the regeneration time was 30 s.
(4) Kinetic parameter determination: The experiment was carried out in a multi-cycle mode, in which the response signal took the analysis time as the horizontal coordinate and the response value as the vertical coordinate. The obtained data were fitted by BIAcore T200 analysis software, during which a 1:1 Langmuir binding model was used as a fitting model, so as to determine the kinetic constants such as an association rate constant, a dissociation rate constant, and an association-dissociation constant.

IC50 (nM), inhibition of human FXIa hydrolysis of S-2366 [1]: 47.3 nM
EC50 [2]: 0.056 nM
binding result (human FIXa): no binding
binding result (human FXII): no binding
binding result (human FXa): no binding
binding result (human FIX): no binding
binding result (human FX): no binding
binding result (human PK): no binding
binding result (human Thrombin): no binding
binding result (human FVIIa): no binding
Kd [3]: 0.0231 nM
koff [3]: 0.00245 s⁻¹
kon [3]: 1.06e+08 M⁻¹ s⁻¹
B1: anti-human FXIa full-length human monoclonal antibody 14624 (antibody, IgG1, V domains shown)
VH: QVQLVQSGAEVKKPGASVKVSCKVSGYTLTELSMHWVRQAPGKGLEWMGGFDPEDGETIYAQKFQGRVTMTEDTSTDTAYMELSSLRSEDTAVYYCATDRPVRGVIPYYYYYGMDVWGQGTLVTVSS
VL: QSALTQPPSASGTPGQTVTISCSGSRSNIGSRPVNWYQHLPGTAPKLLIYIDHQRPSGVPDRFSGSKSGTSASLAISGLQSDDEADYYCAAWDDSLDAYVFGTGTKVTVL
notes: Full-length IgG1 made in CHO cells
